{
  "source": "paper PMC9312469",
  "key": {"[1]": {"target": "PH-YFP (isolated PLCδ1 PH domain linked to a yellow fluorescent protein variant that lacks the A206K mutation) (UniProt P51178)", "experiment": "fluorescence fluctuation spectroscopy (photon counting histogram); PH-YFP bound to POPC:PI(4,5)P2 (95:5) GUVs, 50 μM Ca2+; two-brightness population model"}, "[2]": {"target": "PH-YFP (isolated PLCδ1 PH domain linked to a yellow fluorescent protein variant that lacks the A206K mutation) (UniProt P51178)", "experiment": "fluorescence fluctuation spectroscopy (photon counting histogram); PH-YFP bound to POPC:PI(4,5)P2 (95:5) GUVs, in the presence of Ca2+ (20, 50 and 100 μM taken together, on average); two-brightness population model"}, "[3]": {"target": "PH-YFP (isolated PLCδ1 PH domain linked to a yellow fluorescent protein variant that lacks the A206K mutation) (UniProt P51178)", "experiment": "fluorescence fluctuation spectroscopy (photon counting histogram); PH-YFP bound to POPC:PI(4,5)P2 (95:5) GUVs, 5 mM EDTA (0 μM Ca2+); two-brightness population model"}, "[4]": {"target": "PH-YFP (isolated PLCδ1 PH domain linked to a yellow fluorescent protein variant that lacks the A206K mutation) (UniProt P51178)", "experiment": "fluorescence fluctuation spectroscopy (photon counting histogram); PH-YFP bound to POPC:PI(4,5)P2 (95:5) GUVs, 20 μM Ca2+; two-brightness population model"}, "[5]": {"target": "PH-YFP (isolated PLCδ1 PH domain linked to a yellow fluorescent protein variant that lacks the A206K mutation) (UniProt P51178)", "experiment": "fluorescence fluctuation spectroscopy (photon counting histogram); PH-YFP bound to POPC:PI(4,5)P2 (95:5) GUVs, 100 μM Ca2+; two-brightness population model"}},
  "data": [
    {"substance": "PH-YFP (isolated PLCδ1 PH domain linked to a yellow fluorescent protein variant that lacks the A206K mutation) (from UniProt P51178 21-130)", "values": [
      {"measurement": "F1 (Monomeric Population), fraction weighed by brightness", "setting": "[1]", "result": 82.5, "unit": "%"},
      {"measurement": "F2 (Oligomeric Population), fraction weighed by brightness", "setting": "[1]", "result": 17.5, "unit": "%"},
      {"measurement": "fraction of particles in the second (oligomeric) population", "setting": "[2]", "result": "< 5", "unit": "%"},
      {"measurement": "F1 (Monomeric Population), fraction weighed by brightness", "setting": "[3]", "result": 71.3, "unit": "%"},
      {"measurement": "F2 (Oligomeric Population), fraction weighed by brightness", "setting": "[3]", "result": 28.7, "unit": "%"},
      {"measurement": "brightness of the second population relative to the lower brightness (monomer) component", "setting": "[3]", "result": 2.3, "unit": "fold"},
      {"measurement": "stoichiometry N", "setting": "[3]", "result": 2},
      {"measurement": "F1 (Monomeric Population), fraction weighed by brightness", "setting": "[4]", "result": 99.3, "unit": "%"},
      {"measurement": "F2 (Oligomeric Population), fraction weighed by brightness", "setting": "[4]", "result": 0.7, "unit": "%"},
      {"measurement": "F1 (Monomeric Population), fraction weighed by brightness", "setting": "[5]", "result": 86.5, "unit": "%"},
      {"measurement": "F2 (Oligomeric Population), fraction weighed by brightness", "setting": "[5]", "result": 13.5, "unit": "%"}
    ]}
  ]
}
